Results on 1 molecule are retold here after article PMC7592119 (Science (New York, N.Y.), 2019).

This assay concerns the target truncated cycD1 (16-267) (human, UniProt P24385 16-267). Nature of the assay: crystal structure.

Sequence of truncated cycD1 (16-267) (P24385 16-267): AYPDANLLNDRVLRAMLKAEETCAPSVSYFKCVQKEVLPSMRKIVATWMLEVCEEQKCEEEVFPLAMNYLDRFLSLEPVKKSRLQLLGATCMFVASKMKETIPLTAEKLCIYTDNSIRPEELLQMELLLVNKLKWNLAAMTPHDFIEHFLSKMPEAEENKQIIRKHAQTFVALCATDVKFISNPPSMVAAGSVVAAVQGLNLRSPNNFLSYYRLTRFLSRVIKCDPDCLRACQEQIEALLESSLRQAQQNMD

B1: p27(3E) (p27^KID 25-93 with glutamate phosphomimetics at Y74, Y88 and Y89) (domain or fragment, human, UniProt P46527 25-93, looked up)
chain: KPSACRNLFGPVDHEELTRDLEKHCRDMEEASQRKWNFDFQNHKPLEGKEEWQEVEKGSLPEFEERPPR
Take B1: the binding result is given as “binds”.
